Laboratory results published in US8591913B2, “Methods of decreasing adipose tissue” (Toru Miyazaki, priority 2009, dated 2013).

Assays:
[1] = tested on: AIM-/- mice; assay: Intraperitoneal rAIM in AIM-/- mice given HFD; format: in vivo, mouse
Protocol: While giving HFD to AIM^−/− mice for 15 weeks, mouse rAIM was intraperitoneally injected into the AIM^−/− mice for the last 9 weeks to examine whether the administration of rAIM inhibits the increase of the adipose tissue mass. That is, rAIM was intraperitoneally injected three times a week into the AIM^−/− mice ((150 μg/injection/mouse)×(three times/week)=(450 μg/mouse/week)) over the last 9 weeks, and the body weight, the weight of the visceral fat, and the weight of the subcutaneous fat were measured in the 15th week. The body weight, the weight of the visceral fat, and the weight of the subcutaneous fat were also measured in the AIM^−/− mice as the control to which BSA (bovine serum albumin) had been intraperitoneally administered in the same administration schedule.
FIG. 30A, FIG. 30B, and FIG. 30C show the results (n=3) of measuring the body weight (Body) (g), the weight of the visceral adipose tissue (Visceral fat) (g), and the amount of the subcutaneous adipose tissue (Subcutaneous fat) (g) in the AIM/mice to which BSA was administered (BSA) and the AIM^−/− mice to which rAIM was administered (rAIM), respectively.
Further, mRNA levels of FSP27, perilipin, and adipophilin were evaluated in each of the AIM^−/− mice to which BSA was administered and the AIM^−/− mice to which rAIM was administered. The mRNA levels were measured using RNA isolated from epididymal fat and using QPCR.
FIG. 31 illustrates the mRNA levels (n=3) of FSP27, perilipin, and adipophilin evaluated in each of the AIM^−/− mice to which BSA was administered (BSA) and the AIM^−/− mice to which rAIM was administered (rAIM). It should be noted that values illustrated in FIG. 31 were normalized to GAPDH and represented as expressions relative to the results in the mice to which BSA had been injected.

[2] = tested on: 3T3-L1 cells; assay: Endocytosis of AIM into differentiated 3T3-L1 cells (confocal and immunoelectron microscopy); format: cell-based, mouse
Protocol: Subsequently, the cells were collected, and intracellularly stained using an anti-AIM antibody. Further, nuclei in the cells were stained using DAPI.
FIG. 16A and FIG. 16B show immunoelectron micrographs of the cells cultured for 3 hours (3 hr) and 12 hours (overnight) after being loaded with AIM, respectively.

[3] = molecular target: T1, mouse CD36 (Mus musculus, UniProt Q08857); assay: Binding of AIM to CD36-overexpressing HEK293 cells (confocal microscopy); details: HEK293 cells overexpressing FLAG-tagged mouse CD36, cultured with mouse AIM for 3 hours
T1 construct: expressed in transfected cells; host or cells: HEK293 (called HEK293T)
T1 sequence (Q08857 whole entry): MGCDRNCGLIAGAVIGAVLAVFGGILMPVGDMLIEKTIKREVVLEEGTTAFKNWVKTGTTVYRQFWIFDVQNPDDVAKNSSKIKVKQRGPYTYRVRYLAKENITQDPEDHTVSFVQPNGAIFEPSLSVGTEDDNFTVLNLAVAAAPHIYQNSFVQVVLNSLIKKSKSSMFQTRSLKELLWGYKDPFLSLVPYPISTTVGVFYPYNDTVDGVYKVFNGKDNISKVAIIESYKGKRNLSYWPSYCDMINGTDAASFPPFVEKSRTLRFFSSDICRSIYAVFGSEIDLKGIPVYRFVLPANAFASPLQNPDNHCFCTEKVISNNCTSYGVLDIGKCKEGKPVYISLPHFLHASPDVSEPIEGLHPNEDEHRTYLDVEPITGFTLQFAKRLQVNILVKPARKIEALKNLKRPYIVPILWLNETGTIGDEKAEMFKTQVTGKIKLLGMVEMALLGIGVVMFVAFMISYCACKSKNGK
Protocol: CD36 is a twice-transmembrane-type molecule, is expressed on adipocytes and macrophages, and is involved in intracellular internalization of many molecules including fatty acids, LDL, and the like. Thus, HEK293 cells in which mouse CD36 fused with a FLAG-tag at its C terminus was overexpressed were produced, and the cells were cultured with mouse AIM for 3 hours. Subsequently, the cells were collected, stained using an anti-AIM antibody and an anti-CD36 antibody, and observed under a confocal microscope.

[4] = tested on: FAS domains; assay: Co-immunoprecipitation of FLAG-tagged FAS regions with HA-tagged AIM in HEK293T cells; format: binding; details: HA-tagged mouse AIM
From the text: Further, it was attempted to map a binding region of FAS to AIM. FAS has the following distinct seven functional domains, i.e., ketoacyl synthase (KS), malonyl/acetyl transferase (MAT), dehydrase (DH), enoylreductase (ER), ketoreductase (KR), acyl carrier protein (ACP), and thioesterase (TE), as illustrated in FIG. 34A. There is a central core (CC) between the DH domain and the ER domain. It is believed that the central core has no known catalytic function and plays a structural role in stabilization of the dimer. FIG. 34A illustrates FAS dimerized through head-to-tail interaction and major functions of its respective regions.
Thus, an association of each region in FAS tagged with FLAG with AIM tagged with HA was examined by a co-precipitation study. That is, each domain from FAS tagged with FLAG at the N terminus was expressed in HEK293T cells in which mouse AIM tagged with HA was stably expressed. Then, the association of each region with AIM was examined by a co-immunoprecipitation study using an anti-FLAG antibody and an anti-HA antibody. However, AIM was not bound to an N terminal region including the KS and MAT domains (see FIG. 34A) involved in initial acyl chain assembly (i.e., condensation of acetyl group and malonyl group to 3-ketobutyryl-ACP associated with release of carbon dioxide). Therefore, it was thought that AIM affected elongation of a fatty acid chain (which involves ER and DH) and the release of synthesized palmitate (which depends on TE). Over-expression of ER or KR led to death of many cells. This caused the reduction of the signals in WB using the cell lysates of them [lower panel in FIG. 34B, lanes: ER and KR).

[5] = epididymal fat, QPCR, rAIM ip versus BSA
[6] = mouse rAIM ip 150 μg/injection/mouse, three times/week, last 9 of 15 weeks HFD, versus BSA

B1: mouse AIM: protein consisting of the amino acid sequence shown in SEQ ID NO: 5; recombinant, purified from HEK293T culture supernatant (protein)
chain: MAPLFNLMLAILSIFVGSCFSESPTKVQLVGGAHRCEGRVEVEHNGQWGTVCDDGWDRRDVAVVCRELNCGAVIQTPRGASYQPPASEQRVLIQGVDCNGTEDTLAQCELNYYVFDCSHEEDAGAQCENPDSDLLFIPEDVRLVDGPGHCQGRVEVLHQSQWSTVCKAGWNLQVSKVVCRQLGCGRALLTYGSCNKNTQGKGPIWMGKMSCSGQEANLRSCLLSRLENNCTHGEDTWMECEDPFELKLVGGDTPCSGRLEVLHKGSWGSVCDDNWGEKEDQVVCKQLGCGKSLHPSPKTRKIYGPGAGRIWLDDVNCSGKEQSLEFCRHRLWGYHDCTHKEDVEVICTDFDV
modifications: mouse
notes: recombinant, purified from HEK293T culture supernatant
[1]; [5]
  mRNA level of FSP27: low
  mRNA level of adipophilin: low
  mRNA level of perilipin: low
[1]; [6]
  body weight gain: remarkably small
  increase in weight of the subcutaneous fat: remarkably small
  increase in weight of the visceral fat: remarkably small

B2: AIM: apoptosis inhibitor of macrophage, secretory protein with three SRCR domains; recombinant mouse and human AIM in Example 2, mouse AIM in Examples 3-16 (protein)
chain: ESPTKVQLVGGAHRCEGRVEVEHNGQWGTVCDDGWDRRDVAVVCRELNCGAVIQTPRGASYQPPASEQRVLIQGVDCNGTEDTLAQCELNYYVFDCSHEEDAGAQCENPDSDLLFIPEDVRLVDGPGHCQGRVEVLHQSQWSTVCKAGWNLQVSKVVCRQLGCGRALLTYGSCNKNTQGKGPIWMGKMSCSGQEANLRSCLLSRLENNCTHGEDTWMECEDPFELKLVGGDTPCSGRLEVLHKGSWGSVCDDNWGEKEDQVVCKQLGCGKSLHPSPKTRKIYGPGAGRIWLDDVNCSGKEQSLEFCRHRLWGYHDCTHKEDVEVICTDFDV
[2]; cells cultured in the presence of AIM for 3 hours
  localisation of AIM, immunoelectron microscope: accumulated like the dots on the membrane of particles thought to be endosomes
[2]; cells cultured in the presence of AIM for 12 hours
  localisation of AIM, immunoelectron microscope: migrated therefrom into the cytoplasm
[2]; immunoelectron microscope
  accumulation of AIM on phagosomes, phagolysosomes, or mitochondria: No AIM was accumulated
[2]; mouse AIM 5 μg/mL, 3 hours, day 4 of culture
  endocytosis of AIM into the cytoplasm, confocal microscope: endocytosed like dots
[3]
  binding of AIM to sites at which CD36 was expressed on the cells: had been bound to sites
[4]; FLAG-tagged domain
  binding to the CC (central core) domain of FAS: specifically bound
  binding to the DH domain of FAS: specifically bound
  binding to the ER domain of FAS: specifically bound
  binding to the TE domain of FAS: specifically bound
[4]; FLAG-tagged region
  binding to the N terminal region of FAS including the KS and MAT domains: not bound
